From article PMC8313009

Experiments:
Complement C3b (human) [1] = biological target: Complement C3b (human) (UniProt P01024); test: ELISA; competition; heparin-binding plates coated with 25 ug/ml human C3b together with 40 ug/ml kidney heparan sulfate; FH fixed at 16 nM with rFHR-5 at 7-221 nM (dimer), 2 h room temperature, 5% BSA, 100 mM NaCl, 50 mM NaOAc, pH 7.3; bound FH detected with monoclonal anti-FH; FH binding without rFHR-5 = 100%
Complement C3b (human) [2] = biological target: Complement C3b (human) (UniProt P01024); test: ELISA; competition; heparin-binding plates coated with 25 ug/ml human C3b alone; FH fixed at 16 nM with rFHR-5 at 7-221 nM (dimer), 2 h room temperature, 5% BSA, 100 mM NaCl, 50 mM NaOAc, pH 7.3; bound FH detected with monoclonal anti-FH; FH binding without rFHR-5 = 100%

percent of FH binding to surface C3b with kidney HS left at a 1:1 molar ratio of rFHR-5 and FH (Complement C3b (human) [1]): 50% | percent of FH binding to surface C3b left at a 1:1 molar ratio of rFHR-5 and FH (Complement C3b (human) [2]): 80%
B1: Recombinant complement factor H-related protein 5 (natural protein)
chain: EGTLCDFPKIHHGFLYDEEDYNPFSQVPTGEVFYYSCEYNFVSPSKSFWTRITCTEEGWSPTPKCLRMCSFPFVKNGHSESSGLIHLEGDTVQIICNTGYSLQNNEKNISCVERGWSTPPICSFTKGECHVPILEANVDAQPKKESYKVGDVLKFSCRKNLIRVGSDSVQCYQFGWSPNFPTCKGQVRSCGPPPQLSNGEVKEIRKEEYGHNEVVEYDCNPNFIINGPKKIQCVDGEWTTLPTCVEQVKTCGYIPELEYGYVQPSVPPYQHGVSVEVNCRNEYAMIGNNMITCINGIWTELPMCVATHQLKRCKIAGVNIKTLLKLSGKEFNHNSRIRYRCSDIFRYRHSVCINGKWNPEVDCTEKREQFCPPPPQIPNAQNMTTTVNYQDGEKVAVLCKENYLLPEAKEIVCKDGRWQSLPRCVESTAYCGPPPSINNGDTTSFPLSVYPPGSTVTYRCQSFYKLQGSVTVTCRNKQWSEPPRCLDPCVVSEENMNKNNIQLKWRNDGKLYAKTGDAVEFQCKFPHKAMISSPPFRAICQEGKFEYPICE
